Data reported in paper PMC3196576.

Tests used:
GroEL CP376 (E. coli) = GroEL CP376 (E. coli) (UniProt P0A6F5); assay: SEC; gel filtration profiles observed during purification (AKTA FPLC, 4°C); data not shown
GroEL CP376-RW (E. coli) [1] = target: GroEL CP376-RW (E. coli) (UniProt P0A6F5); assay: negative-stain electron microscopy; GroEL alone, 0.25 mg/ml in 50 mM triethanolamine pH 7.5, 20 mM MgCl2, 50 mM KCl; 1% uranyl acetate
GroEL CP376-RW (E. coli) [2] = target: GroEL CP376-RW (E. coli) (UniProt P0A6F5); assay: SEC; gel filtration profiles observed during purification (AKTA FPLC, 4°C); data not shown

In the case of “GroEL CP376 (from UniProt P0A6F5 376-548; P0A6F5 2-374)”, the stoichiometry N (GroEL CP376 (E. coli)) is reported as 14.
With “GroEL CP376-RW (from UniProt P0A6F5 376-548; P0A6F5 2-374)” the stoichiometry N (GroEL CP376-RW (E. coli) [1]) was 14 and the stoichiometry N (GroEL CP376-RW (E. coli) [2]) was 14.
